Affinity relative to human insulin and fold lower affinity than IGF1 data for one molecule are collected here from patent US20090197805A1, “Insulin receptor antagonists and related compositions, uses and methods” (Novo Nordisk A/S, priority 2005, published 2009).

One experiment concerns the target insulin receptor. Nature of the experiment: competition binding assay with 125I-labeled insulin on the insulin receptor; reference human insulin.
A further experiment has as its target IGF1 receptor. Description: competition binding assay with 125I-labeled IGF1 on the IGF1 receptor; reference IGF1.

Ends that are not written are not given here.

GSLDESFYDWFERQLGGGSGGSSLEEEWAQIQCEVWGRGCPSY-NH2 (cysteine pairing not given here) [PIRA S661 (…-amide)]: the affinity relative to human insulin with insulin receptor was determined as 48%. In the experiment with IGF1 receptor, this molecule displayed a fold lower affinity than IGF1 of 200000 fold.
